The series concerns the molecule itself. The series can be described thus: cryo-EM structure; purified PsCHS at 3 mg/mL in digitonin, incubated with 0.5 mM UDP-GlcNAc and 1 mM Mn2+ for 15 min or 40 min at 25 °C before freezing; UDP/Mn2+-bound state resolved for both samples.

B1: Phytophthora sojae chitin synthase 1 (enzyme)
chain: MSGAPPPSSGFAPRSYGQQPLSHAPRSSMMSVEYDGIPLPPPSIRSCGSQQYVTSYIPTGAAFPPSSVQDMISSMKSYASATDLVRTYSEIPSVEEALSTLDRAAAALNARRYRDALKLYLEGGYAMANVAERQANPKICNLLTSKGFETLNWCARLCDWIEGRIKEKHPRPGVHKVGIPVSNWDEDWVGPFMDEEEARRMWYTPVYCPHPIDFSNLGYRLRCVETGRRPRLMICITMYNEGPQQLKATLKKLANNLAYLKEQMPGDEKSLTGAFAGDDVWQNVLVCIVADGREQVHPKTLDYLEAIGLYDEDLLTINSAGIGAQCHLFEHTLQLSVNGKCLLPIQTVFALKENKASKLDSHHWYFNAFAEQIQPEYTAVMDVGTMLTKSALYHLLFAFERNHQIGGACGQLTVDNPFENLSNWVISAQHFEYKISNILDKSLESCFGFISVLPGAFSAYRYEAIRGAPLDAYFQTLNIELDVLGPFIGNMYLAEDRILSFEVVARKNCNWTMHYVKDAVARTDVPHDLVGLISQRKRWLNGAFFATLFSIWNWGRIYSESKHTFVRKMAFLVFYVYHLLYTAFGFFLPANLYLALFFIVFQGFQQNRLEFIDTSEYSQTVLDCAVYIYNFSYLFGLLMLIIIGLGNNPKHMKLTYYFVGAVFGLMMMLSSLVGAGIFFSTPATVHSIVVSILTVGVYFIASALHGEVHHIFMTFTHYTALIPSFVNIFTIYSFCNLQDLSWGTKGLHDDPLLAASLDETEKGDFKDVIAKRRALEELRREEKERVENRKKNFEAFRTNVLLTWAFSNLIFALFVVYFASSSTYMPVLYIFVASLNTCRLLGSIGHWVYIHTEGLRGRVIDKSECGNGTGRYPQNSYVQLEEHYAALAEDQRTYASGRTNASVRTVNDVSSAA
notes: Phytophthora sojae chitin synthase 1 (PsCHS1), the PsCHS gene in pcDNA3.1; the final models lack residues 1-22, stretches within 40-90, 738-761 and 860-925; also called PsCHS; PsCHS1; source: HEK293F cells, transfected (pcDNA3.1), purified (digitonin solubilisation, Ni-NTA, Superose 6 Increase SEC)
As to B1, the “stoichiometry N” value was 2.

The term stoichiometry N denotes the number of molecules, sites or subunits per partner or assembly.

The values above are taken from publication PMC11546553, “Chitin Translocation Is Functionally Coupled with Synthesis in Chitin Synthase” (International Journal of Molecular Sciences, 2024).
